Reference: paper PMC8546961, “Cofactor Specificity of Glucose-6-Phosphate Dehydrogenase Isozymes in Pseudomonas putida Reveals a General Principle Underlying Glycolytic Strategies in Bacteria” (mSystems, 2021)
Where two headings read alike, the source gives them in different places.

T1: G6PDH-C (Pseudomonas putida, UniProt Q88C32)
T1 construct: gene zwf
T1 sequence (Q88C32 1-485): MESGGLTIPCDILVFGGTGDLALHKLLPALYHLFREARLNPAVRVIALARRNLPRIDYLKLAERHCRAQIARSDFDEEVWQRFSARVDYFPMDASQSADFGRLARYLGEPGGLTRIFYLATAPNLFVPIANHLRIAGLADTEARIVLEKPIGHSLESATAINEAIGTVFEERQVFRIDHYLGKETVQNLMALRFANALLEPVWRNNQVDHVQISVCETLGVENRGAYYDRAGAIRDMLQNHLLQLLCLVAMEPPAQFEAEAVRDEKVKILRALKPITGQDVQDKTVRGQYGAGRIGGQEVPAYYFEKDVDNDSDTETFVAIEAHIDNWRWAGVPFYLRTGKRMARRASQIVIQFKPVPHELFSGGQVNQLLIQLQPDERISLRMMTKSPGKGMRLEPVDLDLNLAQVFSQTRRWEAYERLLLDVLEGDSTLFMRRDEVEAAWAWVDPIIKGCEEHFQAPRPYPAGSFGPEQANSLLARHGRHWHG

T2: G6PDH-B (Pseudomonas putida, UniProt Q88FP7)
T2 construct: gene zwfB
T2 sequence (Q88FP7 1-501): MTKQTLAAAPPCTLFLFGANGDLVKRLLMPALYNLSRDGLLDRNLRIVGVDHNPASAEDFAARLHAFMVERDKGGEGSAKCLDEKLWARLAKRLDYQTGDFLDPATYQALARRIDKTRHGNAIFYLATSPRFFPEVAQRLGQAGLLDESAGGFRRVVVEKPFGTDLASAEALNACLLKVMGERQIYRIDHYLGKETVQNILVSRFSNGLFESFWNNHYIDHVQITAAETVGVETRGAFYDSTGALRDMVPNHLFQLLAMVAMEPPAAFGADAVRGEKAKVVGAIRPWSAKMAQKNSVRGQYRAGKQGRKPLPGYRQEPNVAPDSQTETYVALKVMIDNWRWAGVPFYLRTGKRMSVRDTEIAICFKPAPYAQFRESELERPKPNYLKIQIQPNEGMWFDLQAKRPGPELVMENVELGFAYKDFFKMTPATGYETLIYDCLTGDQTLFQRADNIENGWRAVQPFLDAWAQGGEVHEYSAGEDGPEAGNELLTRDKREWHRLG


What was measured:
[1] = target: T1, G6PDH-C; experiment: initial rates, NAD(P)H formation at […] nm, global fit (DYNAFIT), rapid-equilibrium random-ordered model; format: biochemical; details: buffer A (50 mM Tris-HCl, 5 mM NaCl, 5 mM MgCl2, 5% glycerol), pH 8.0, 30°C, G6P varied
[2] = target: T2, G6PDH-B; experiment: as above; format: biochemical; details: buffer A (50 mM Tris-HCl, 5 mM NaCl, 5 mM MgCl2, 5% glycerol), pH 8.0, 30°C, G6P varied
[3] = substrate: NC(=O)c1ccc[n+]([C@@H]2O[C@H](COP(=O)(O)OP(=O)(O)OC[C@H]3O[C@@H](n4cnc5c(N)ncnc54)[C@H](O)[C@@H]3O)[C@@H](O)[C@H]2O)c1; experiment: purified protein; format: biochemical, Pseudomonas putida; details: G6P co-substrate, buffer A (50 mM Tris-HCl, 5 mM NaCl, 5 mM MgCl2, 5% glycerol), pH 8.0, 30°C
[4] = substrate: NC(=O)c1ccc[n+]([C@@H]2O[C@H](COP(=O)(O)OP(=O)(O)OC[C@H]3O[C@@H](n4cnc5c(N)ncnc54)[C@H](OP(=O)(O)O)[C@@H]3O)[C@@H](O)[C@H]2O)c1; experiment: purified protein; format: biochemical, Pseudomonas putida; details: G6P co-substrate, buffer A (50 mM Tris-HCl, 5 mM NaCl, 5 mM MgCl2, 5% glycerol), pH 8.0, 30°C
[5] = dissociation constant of NAD+ from free enzyme, read-out: NAD^+ / Ki
[6] = dissociation constant of NADP+ from free enzyme, read-out: NADP^+ / Ki

Kd [1, 5]	Kd [2, 5]	Kd [1, 6]	Kd [2, 6]	Molecule	Km [3]	kcat [3]	Km [4]	kcat [4]
5800 µM	301 ± 48 µM			NC(=O)c1ccc[n+]([C@@H]2O[C@H](COP(=O)(O)OP(=O)(O)OC[C@H]3O[C@@H](n4cnc5c(N)ncnc54)[C@H](O)[C@@H]3O)[C@@H](O)[C@H]2O)c1 [NAD^+]				
		9.2 ± 1.9 µM	790 ± 110 µM	NC(=O)c1ccc[n+]([C@@H]2O[C@H](COP(=O)(O)OP(=O)(O)OC[C@H]3O[C@@H](n4cnc5c(N)ncnc54)[C@H](OP(=O)(O)O)[C@@H]3O)[C@@H](O)[C@H]2O)c1 [NADP^+]				

Further lines, the molecule ahead of its results:

Molecule	Kd [1, 5]	Kd [2, 5]	Kd [1, 6]	Kd [2, 6]	Km [3]	kcat [3]	Km [4]	kcat [4]
G6PDH-B (Pseudomonas putida KT2440) (protein) MTKQTLAAAPPCTLFLFGANGDLVKRLLMPALYNLSRDGLLDRNLRIVGVDHNPASAEDFAARLHAFMVERDKGGEGSAKCLDEKLWARLAKRLDYQTGDFLDPATYQALARRIDKTRHGNAIFYLATSPRFFPEVAQRLGQAGLLDESAGGFRRVVVEKPFGTDLASAEALNACLLKVMGERQIYRIDHYLGKETVQNILVSRFSNGLFESFWNNHYIDHVQITAAETVGVETRGAFYDSTGALRDMVPNHLFQLLAMVAMEPPAAFGADAVRGEKAKVVGAIRPWSAKMAQKNSVRGQYRAGKQGRKPLPGYRQEPNVAPDSQTETYVALKVMIDNWRWAGVPFYLRTGKRMSVRDTEIAICFKPAPYAQFRESELERPKPNYLKIQIQPNEGMWFDLQAKRPGPELVMENVELGFAYKDFFKMTPATGYETLIYDCLTGDQTLFQRADNIENGWRAVQPFLDAWAQGGEVHEYSAGEDGPEAGNELLTRDKREWHRLG					151 ± 7 µM	120 ± 1 s^–1	165 ± 11 µM	113 ± 1 s^–1
G6PDH-C (Pseudomonas putida KT2440) (protein) MESGGLTIPCDILVFGGTGDLALHKLLPALYHLFREARLNPAVRVIALARRNLPRIDYLKLAERHCRAQIARSDFDEEVWQRFSARVDYFPMDASQSADFGRLARYLGEPGGLTRIFYLATAPNLFVPIANHLRIAGLADTEARIVLEKPIGHSLESATAINEAIGTVFEERQVFRIDHYLGKETVQNLMALRFANALLEPVWRNNQVDHVQISVCETLGVENRGAYYDRAGAIRDMLQNHLLQLLCLVAMEPPAQFEAEAVRDEKVKILRALKPITGQDVQDKTVRGQYGAGRIGGQEVPAYYFEKDVDNDSDTETFVAIEAHIDNWRWAGVPFYLRTGKRMARRASQIVIQFKPVPHELFSGGQVNQLLIQLQPDERISLRMMTKSPGKGMRLEPVDLDLNLAQVFSQTRRWEAYERLLLDVLEGDSTLFMRRDEVEAAWAWVDPIIKGCEEHFQAPRPYPAGSFGPEQANSLLARHGRHWHG					(9.5 ± 1.1)×10^3 μM	0.77 ± 0.04 s^–1	3.2 ± 0.7 µM	0.54 ± 0.02 s^–1
